Results published in article PMC10540216, “Activity Guided Azide-methyllysine Photo-trapping for Substrate Profiling of Lysine Demethylases” (Journal of the American Chemical Society, 2023).
Where no end group is shown, it is not given here.

Molecular target: T1, CBX1 chromodomain
T1 construct: Chromodomain of Chromobox protein 1 (CBX1); Expression, purification and construct limits are in the Supporting Information; also called Chromobox protein 1
Test: ITC; CBX1 chromodomain and eIF4A3 K374me0/1/2/3 peptides
Conditions: both partners purified

Kd | Binder
95.2 ± 1.4 µM | GRSGRYGRKGVAINFVK (also: dimethyllysine at K374) [eIF4A3-K374me2 peptide 23]
23.2 ± 2 µM | GRSGRYGRKGVAINFVK (also: trimethyllysine at K374) [eIF4A3-K374me3 peptide 13]
